Experimental data: patent US20200277373A1, “ANTI-TREM2 ANTIBODIES AND METHODS OF USE THEREOF” (Denali Therapeutics Inc., priority 2017, published 2020)

Key:
[1] = biological target: T1, hTREM2 (Homo sapiens, UniProt Q9NZC2); assay: Octet binning (competition with R&D antibody on biotinylated TREM2-His); type: binding; conditions: epitope bin, 100 nM
T1 construct: The ecto domain (residues 19-172) of TREM2 (UniProtKB—Q9NZC2); secretion signal of mouse Ig kappa chain V-III (P01661 aa 1-20) (N); made in house; host or cells: Expi293F
T1 sequence (Q9NZC2 19-172): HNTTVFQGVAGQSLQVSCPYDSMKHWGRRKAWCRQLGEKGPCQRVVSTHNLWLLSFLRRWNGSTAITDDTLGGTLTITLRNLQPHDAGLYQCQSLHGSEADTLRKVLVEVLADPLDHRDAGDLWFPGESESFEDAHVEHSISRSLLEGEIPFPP
Protocol: Competition with R&D antibody was done by Octet Red using biotinylated human Trem2-His protein generated in house. Biotinylated human TREM2-His protein was captured on a streptavidin tip, and the tip was then incubated in either 100 nM of R&D Ab or buffer for 3 minutes, followed by incubation for 3 minutes in 100 nM of testing hybridoma. The difference of hybridoma binding curve with or without pre-binding to R&D antibody was analyzed to determine the epitope.

[2] = biological target: T2, Human TREM2 expressing HEK cells (Homo sapiens, UniProt Q9NZC2); assay: FACS surface binding on HEK 293 overexpressing human TREM2 (H6); conditions: FIG. 1A, mixed cell lines
T2 construct: expressed in transfected cells
T2 sequence (O43914 22-113 partner, one chain of several): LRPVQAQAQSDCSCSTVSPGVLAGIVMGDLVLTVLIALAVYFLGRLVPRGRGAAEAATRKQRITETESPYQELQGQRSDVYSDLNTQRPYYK
Protocol: HEK 293 overexpressing human TREM2 (H6) and HEK 293 overexpressing GFP (B5) were harvested by 0.05% trypsin and incubated at 37° C. for 2 hours for surface TREM2 recovery. 293F overexpression mouse TREM2 were harvested and labelled with NucBlue live cell stain ReadyProbes reagent for 10 minutes (2 drops of reagent added per mL of media). After labeling, cells were washed twice with 1×PBS. NucBlue labeled 293F cells were mixed with H6 and B5 in FACS buffer (PBS-+-0.5% BSA) with human Trustain FcX solution (Biolegend, cat #422302) at a density of 10^6/mL per cell line. Mixed cell lines were seeded at 300,000 cells per well in a 96-well round-bottom and incubated 20 minutes at room temperature. After incubation, cells were centrifuged and test anti-TREM2 antibodies were added, then incubated for 45 minutes on ice. After incubation, cells were centrifuged and washed with FACS buffer three times. Cells were then incubated with secondary antibody (Alexa Fluor 647 AffiniPure F(ab′)2 fragment goat anti-mouse IgG, Fcγ fragment specific (1:200, Jackson ImmunoResearch, cat #115-606-071) for 30 minutes on ice. After incubation, cells were washed with FACS buffer three times and resuspended in 90 μL of FACS buffer, then analyzed by flow cytometry (BD FACSCanto II, San Jose, Calif.). 20,000 events were obtained for each sample.

[3] = test system: human macrophages; assay: Cell survival assay, human monocyte-derived macrophages, restricted or no M-CSF, CellTiter Glo; type: cell-based; conditions: plate coated antibody, 5 ng/mL or no M-CSF, day 6
Protocol: TREM2 can support microglia energy homeostasis (Ulland et al., Cell, 2017, 170:649-663). […] To understand if enhancing TREM2 activity with TREM2 agonistic antibodies is sufficient for macrophage/microglia survival under limited M-CSF conditions, human macrophage differentiation and survival studies were performed using antibodies as described herein. Human monocytes isolated from peripheral blood were incubated with 5 ng/mL M-CSF in the presence of titrated concentrations of plate coated TREM2 antibodies or isotype controls. On day 6 cell viability was determined by CellTiter Glo viability assay.

[4] = biological target: T3, TREM2 (Homo sapiens, UniProt Q9NZC2); assay: TREM2 pSyk antagonist assay on human macrophages (antibody pre-incubation, then liposomes); type: cell-based; conditions: FIGS. 9C-9D, 30 nM antibody
T3 construct: macrophage cells that endogenously express TREM2; endogenous in cells; host or cells: primary human monocyte-derived macrophages from donor blood
T3 sequence (Q9NZC2 19-230): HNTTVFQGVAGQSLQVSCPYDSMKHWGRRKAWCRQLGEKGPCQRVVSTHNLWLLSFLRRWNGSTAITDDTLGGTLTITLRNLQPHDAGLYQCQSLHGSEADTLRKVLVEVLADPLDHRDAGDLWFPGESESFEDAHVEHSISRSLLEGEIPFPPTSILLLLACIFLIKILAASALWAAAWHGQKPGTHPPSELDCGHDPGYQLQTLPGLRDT
Protocol: Human macrophages were differentiated from donor blood using a human monocyte enrichment cocktail (Stem Cell Technologies) and culturing monocytes with human mCSF for five days in macrophage media (RPMI+10% Hyclone FBS+Glutamax+Pen/Strep+non-essential amino acids+sodium pyruvate). On the fifth day, the human macrophages were scraped from the flasks and were re-plated at 100,000 cells/well on a 96-well poly-D-lysine-coated plate in the macrophage media (without mCSF). The cells were incubated for 24 hours to adhere, then the media was removed.
Antibodies diluted in RPMI alone were immediately added to the cells, and allowed to incubate for 30 minutes at 37° C. The antibodies were then removed. Lipid vesicles comprised of 70% DOPC and 30% POPS (made according to the procedure for making vesicles described above) in HBSS were added to the cells and incubated […] at 37° C. The liposome/antibody solution was removed, and 35 μL lysis buffer (Cell Signaling Technologies, CST) was added using the liquid handler. The lysate was then incubated at 4° C. for 30 minutes, then either frozen at −80° C. or immediately carried forward to a pSyk AlphaLISA assay as described above.

[5] = biological target: T4, TREM2 (Homo sapiens, UniProt Q9NZC2); assay: pSyk antagonist assay on HEK293 TREM2/DAP12 cells; type: cell-based; conditions: FIGS. 9E-9G
T4 construct: expressed in transfected cells
Protocol: These experiments were performed as follows. Two days in advance of the experiment, HEK293 cells stably overexpressing TREM2 and DAP12 were plated at 40,000 cells/well on a 96 well poly-D-lysine-coated plate. Antibodies diluted in DMEM alone were immediately added to the cells, and allowed to incubate for 30 minutes at 37° C. The antibodies were then removed. […] The liposome/antibody solution was removed, and 35 μL lysis buffer (Cell Signaling Technologies, CST) was added using the liquid handler. The lysate was then incubated at 4° C. for 30 minutes, then either frozen at −80° C. or immediately carried forward to a pSyk AlphaLISA assay as described above. The percent inhibition was calculated as in FIG. 9C.
FIGS. 9F and 9G show inhibition by 21D4 and 21D11, respectively, at increasing antibody concentrations. These experiments were performed similarly to those described in FIG. 9E.
T4 sequence (O43914 22-113 partner, one chain of several): as the sequence (O43914 22-113 partner, one chain of several) above

B1: 3D3.A1: anti-TREM2 antibody clone; VH SEQ ID NO:18, VL SEQ ID NO:29 (antibody, V domains shown)
VH: EVQLQQSGPELVKPGASVKISCKTSGYTLSEYTMHWVIQSHGKSLEWIGGVIPNSGGTSYNQKFRDKASLTVDKSSSTAYLELRSLTSEDSAVYYCARGDDSYRRGYALDYWGQGTSVTVSS
VL: DIVMSQSPSSLAVSVGEKVTMSCKSSQSLLYSSNQKSYLAWYQQKPGQSPKLLIYWASTRESGVPDRFRGSGSGTDFTLTISSVKAEDLAVYYCQQYFSYPPTFGGGTKLEIK
[1]
  Bin by Octet: 3

B2: RS9.F6: anti-TREM2 antibody clone; VH SEQ ID NO:24, VL SEQ ID NO:35 (antibody, V domains shown)
VH: QVQLQQPGAELVKPGASVKLSCKASGYTFTSYWMHWVKQSPGRGLEWIGRSDPTTGGTNYNEKFKTKATLTVDKPSSTAYMQLSSLTSDDSAVYYCVRTSGTGDYWGQGTSLTVSS
VL: DVVMTQTPLSLPVSLGDQASISCRSSQSLVHNNGNTFLHWYLQKPGQSPKLLIYKVSNRFSGVPDRFSGSGSGTDFTLKISRVEAEDLGVYFCSQTTHVPPTFGGGTKLEIK
[2]
  binding to human and mouse TREM2 HEK cells (in words): binding to both mouse and human TREM2 cells
[3]
  survival of human macrophages: increased the survival

B3: 21D11: anti-TREM2 antibody clone; VH SEQ ID NO:14, VL SEQ ID NO:25 (antibody, V domains shown)
VH: QVQLQQSGAELARPGASVKLSCKASGYTFTSYWIQWVKQRPGQGLEWIGTIYPGDGDARYTQKFKGKATLTADKSSSTTYMQLNSLASEDSAVYYCARNGITTAGYYAMDYWGQGTSVTVSS
VL: DIQMTQSPASLSVSVGETVTITCRASENIYSNLAWYQQKQGRSPQLLVYAATNLADGVPSRFSGSGSGTQYSLKINSLQSEDFGYYYCQHFWGTPYTFGGGTKVEIK
[1]
  Bin by Octet: 1-2
[4]
  liposome mediated pSyk signaling after antibody pre-incubation: blocked
[5]
  inhibition of liposome mediated pSyk: weaker antagonistic activity
